The values that follow come from US20040248789A1 (TIANJIN FUSOGEN BIOTECH, published 2004).

Experiment [1] concerns the target gp41 N-peptide (35-70). Briefly: CD thermal melting of the peptide complex, 20-95° C.
Experiment [2] has as its target gp41 N-peptide (35-70). Briefly: Superdex 75 gel filtration; free Fusonex elutes at 17.3 ml.
Experiment [3] addresses HIV-1 gp160HXB (HIV-1, UniProt P04578 512-856). In words: cell-based or functional assay.

Sequence of gp41 N-peptide (35-70) (P04578 546-581): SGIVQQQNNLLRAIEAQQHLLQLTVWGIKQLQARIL
Sequence of HIV-1 gp160HXB (P04578 512-856): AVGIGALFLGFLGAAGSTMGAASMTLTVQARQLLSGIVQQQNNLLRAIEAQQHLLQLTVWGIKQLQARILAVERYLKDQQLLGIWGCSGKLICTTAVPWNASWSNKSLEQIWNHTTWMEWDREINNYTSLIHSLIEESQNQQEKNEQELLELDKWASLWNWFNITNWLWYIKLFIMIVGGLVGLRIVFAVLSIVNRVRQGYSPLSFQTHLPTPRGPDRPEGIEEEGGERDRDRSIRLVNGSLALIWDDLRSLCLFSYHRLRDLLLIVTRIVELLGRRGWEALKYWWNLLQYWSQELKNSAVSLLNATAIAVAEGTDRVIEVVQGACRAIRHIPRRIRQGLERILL

In experiment [1], Fusonex (peptide) came in with a 50% melting temperature of the complex of 70 ° C. Besides, the elution peak of the complex in experiment [2] stood at 13.2 mL. Molecule T-20 (peptide) returned a 50% melting temperature of the complex in experiment [1] of 51 ° C. Ac-SWETWEREIENYTKQIYKILEESQEQQDRNEKDLLE-NH2 [Fusonex]: in experiment [3], the “IC50, cell-cell fusion induced by HIV-1 gp160HXB (luciferase reporter)” value worked out at 1.2 nM and the “IC50 relative to T-20, cell-cell fusion induced by HIV-1 gp160HXB” value is ~0.05 fold of T-20.
